Experiments:
MucB (pET22b-MucB-6His) [1] = molecular target: T1, MucB (pET22b-MucB-6His) (P. aeruginosa, UniProt P38108 22-316); assay: ITC
T1 chain: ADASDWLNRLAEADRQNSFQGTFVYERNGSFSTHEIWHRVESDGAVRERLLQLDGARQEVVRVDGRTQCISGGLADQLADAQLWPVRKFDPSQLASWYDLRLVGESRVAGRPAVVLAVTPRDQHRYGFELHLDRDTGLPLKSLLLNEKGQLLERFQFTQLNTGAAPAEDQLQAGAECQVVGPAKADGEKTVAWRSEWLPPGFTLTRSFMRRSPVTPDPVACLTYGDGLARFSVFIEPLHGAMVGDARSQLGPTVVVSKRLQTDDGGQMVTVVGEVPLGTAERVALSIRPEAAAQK

MucB (pET22b-MucB-6His) [2] = molecular target: T2, MucB (pET22b-MucB-6His) (P. aeruginosa, UniProt P38108 22-316); assay: ITC; MucB (20 µM) in the sample cell titrated with MucA^peri (200 µM), 19 injections; 25 mM Tris–HCl (pH 7.5), 150 mM NaCl, 25 °C; details: both partners purified
T2 construct: source: E. coli BL21 (DE3), purified (Ni–NTA, Superdex-75)
T2 sequence: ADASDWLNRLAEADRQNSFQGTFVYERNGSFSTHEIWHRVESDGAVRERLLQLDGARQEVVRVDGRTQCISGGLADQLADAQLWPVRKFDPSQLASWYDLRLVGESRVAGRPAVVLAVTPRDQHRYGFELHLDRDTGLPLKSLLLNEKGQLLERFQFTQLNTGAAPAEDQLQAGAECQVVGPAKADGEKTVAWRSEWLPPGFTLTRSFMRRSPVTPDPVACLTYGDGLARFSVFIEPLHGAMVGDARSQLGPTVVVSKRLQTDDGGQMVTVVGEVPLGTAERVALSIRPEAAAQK

B1: periplasmic region of MucA (MucA^peri: residues 106–194), with His-tag (domain or fragment)
chain: YNQNDALPQMAQQGTTPQIALPQVKGPAVLAGYSEEQGAPQVITNSSSSDTRWHEQRLPIYLRQHVQQSAVSGTESALPYARAASLENR
notes: also called periplasmic domain of MucA; source: E. coli BL21 (DE3), purified (Ni–NTA, Superdex-75); not shown: His6, C-terminal, kept
Ka (MucB (pET22b-MucB-6His) [1]): 633000 M⁻¹ | Kd (MucB (pET22b-MucB-6His) [2]): 1.5 µM

Source: article PMC7400510, “Molecular basis of the lipid-induced MucA-MucB dissociation in Pseudomonas aeruginosa” (Communications Biology, 2020)
